Assay results reported in paper PMC5159498, “IQGAP1 Interaction with RHO Family Proteins Revisited” (The Journal of Biological Chemistry, 2016).
Residue numbers refer to the chain shown, from its start. Names may count otherwise.

B1: IQGAP1 GRD1-CT (aa 863-1657) (domain or fragment)
chain: DPPMVVVRKFVHLLDQSDQDFQEELDLMKMREEVITLIRSNQQLENDLNLMDIKIGLLVKNKITLQDVVSHSKKLTKKNKEQLSDMMMINKQKGGLKALSKEKREKLEAYQHLFYLLQTNPTYLAKLIFQMPQNKSTKFMDSVIFTLYNYASNQREEYLLLRLFKTALQEEIKSKVDQIQEIVTGNPTVIKMVVSFNRGARGQNALRQILAPVVKEIMDDKSLNIKTDPVDIYKSWVNQMESQTGEASKLPYDVTPEQALAHEEVKTRLDSSIRNMRAVTDKFLSAIVSSVDKIPYGMRFIAKVLKDSLHEKFPDAGEDELLKIIGNLLYYRYMNPAIVAPDAFDIIDLSAGGQLTTDQRRNLGSIAKMLQHAASNKMFLGDNAHLSIINEYLSQSYQKFRRFFQTACDVPELQDKFNVDEYSDLVTLTKPVIYISIGEIINTHTLLLDHQDAIAPEHNDPIHELLDDLGEVPTIESLIGESSGNLNDPNKEALAKTEVSLTLTNKFDVPGDENAEMDARTILLNTKRLIVDVIRFQPGETLTEILETPATSEQEAEHQRAMQRRAIRDAKTPDKMKKSKSVKEDSNLTLQEKKEKIQTGLKKLTELGTVDPKNKYQELINDIARDIRNQRRYRQRRKAELVKLQQTYAALNSKATFYGEQVDYYKSYIKTCLDNLASKGKVSKKPREMKGKKSKKISLKYTAARLHEKGVLLEIEDLQVNQFKNVIFEISPTEEVGDFEVKAKFMGVQMETFMLHYQDLLQLQYEGVAVMKLFDRAKVNVNLLIFLLNKKFYGK
notes: human IQGAP1, GRD, RGCT and CT domains, aa 863-1657; The GST tag was cleaved 'if needed'; also called C-terminal half of IQGAP1; C-terminal 795 amino acids of IQGAP1
B2: IQGAP1 GRD1-RGCT wild type (aa 877-1558) (domain or fragment, human, UniProt P46940 877-1558, looked up)
chain: DQSDQDFQEELDLMKMREEVITLIRSNQQLENDLNLMDIKIGLLVKNKITLQDVVSHSKKLTKKNKEQLSDMMMINKQKGGLKALSKEKREKLEAYQHLFYLLQTNPTYLAKLIFQMPQNKSTKFMDSVIFTLYNYASNQREEYLLLRLFKTALQEEIKSKVDQIQEIVTGNPTVIKMVVSFNRGARGQNALRQILAPVVKEIMDDKSLNIKTDPVDIYKSWVNQMESQTGEASKLPYDVTPEQALAHEEVKTRLDSSIRNMRAVTDKFLSAIVSSVDKIPYGMRFIAKVLKDSLHEKFPDAGEDELLKIIGNLLYYRYMNPAIVAPDAFDIIDLSAGGQLTTDQRRNLGSIAKMLQHAASNKMFLGDNAHLSIINEYLSQSYQKFRRFFQTACDVPELQDKFNVDEYSDLVTLTKPVIYISIGEIINTHTLLLDHQDAIAPEHNDPIHELLDDLGEVPTIESLIGESSGNLNDPNKEALAKTEVSLTLTNKFDVPGDENAEMDARTILLNTKRLIVDVIRFQPGETLTEILETPATSEQEAEHQRAMQRRAIRDAKTPDKMKKSKSVKEDSNLTLQEKKEKIQTGLKKLTELGTVDPKNKYQELINDIARDIRNQRRYRQRRKAELVKLQQTYAALNSKATFYGEQVDYYKSYIKTCLDNLASKGKVSKKPREMKGKKSKK
notes: human IQGAP1, GRD and RGCT domains, lacks the last 99 amino acids, aa 877-1558; also called GRD1-RGCT^WT; IQGAP1^877-1558
B3: IQGAP1 GRD1-RGCT S1441E (aa 877-1558) (domain or fragment)
chain: B2 chain with S565E
notes: human IQGAP1 aa 877-1558 with the phosphomimetic mutation S1441E, from the vector pET46 EkLIC; source: E. coli (pLysS BL21(DE3), CodonPlusRIL or BL21(Rosetta)), purified (Ni-NTA, gel filtration)
B4: IQGAP1 GRD1-RGCT S1443E (aa 877-1558) (domain or fragment)
chain: B2 chain with S567E
notes: human IQGAP1 aa 877-1558 with the phosphomimetic mutation S1443E (printed as S1143E in the methods, S1443E everywhere else), from the vector pET46 EkLIC; source: E. coli (pLysS BL21(DE3), CodonPlusRIL or BL21(Rosetta)), purified (Ni-NTA, gel filtration)
B5: GST-fused IQGAP1 RGCT-CT (aa 1276-1657) (domain or fragment, human, UniProt P46940 1276-1657, looked up)
chain: QDKFNVDEYSDLVTLTKPVIYISIGEIINTHTLLLDHQDAIAPEHNDPIHELLDDLGEVPTIESLIGESSGNLNDPNKEALAKTEVSLTLTNKFDVPGDENAEMDARTILLNTKRLIVDVIRFQPGETLTEILETPATSEQEAEHQRAMQRRAIRDAKTPDKMKKSKSVKEDSNLTLQEKKEKIQTGLKKLTELGTVDPKNKYQELINDIARDIRNQRRYRQRRKAELVKLQQTYAALNSKATFYGEQVDYYKSYIKTCLDNLASKGKVSKKPREMKGKKSKKISLKYTAARLHEKGVLLEIEDLQVNQFKNVIFEISPTEEVGDFEVKAKFMGVQMETFMLHYQDLLQLQYEGVAVMKLFDRAKVNVNLLIFLLNKKFYGK
notes: human IQGAP1, RGCT and CT domains, aa 1276-1657; source: E. coli (pLysS BL21(DE3), CodonPlusRIL or BL21(Rosetta)), purified; not shown: GST, N-terminal, kept
B6: IQGAP1 RGCT (aa 1276-1575) (domain or fragment, human, UniProt P46940 1276-1575, looked up)
chain: QDKFNVDEYSDLVTLTKPVIYISIGEIINTHTLLLDHQDAIAPEHNDPIHELLDDLGEVPTIESLIGESSGNLNDPNKEALAKTEVSLTLTNKFDVPGDENAEMDARTILLNTKRLIVDVIRFQPGETLTEILETPATSEQEAEHQRAMQRRAIRDAKTPDKMKKSKSVKEDSNLTLQEKKEKIQTGLKKLTELGTVDPKNKYQELINDIARDIRNQRRYRQRRKAELVKLQQTYAALNSKATFYGEQVDYYKSYIKTCLDNLASKGKVSKKPREMKGKKSKKISLKYTAARLHEKGVLL
notes: human IQGAP1, RASGAP C-terminal domain, aa 1276-1575; source: E. coli (pLysS BL21(DE3), CodonPlusRIL or BL21(Rosetta)), purified
B7: IQGAP1 GRD2 (aa 962-1345) (domain or fragment, human, UniProt P46940 962-1345, looked up)
chain: SKEKREKLEAYQHLFYLLQTNPTYLAKLIFQMPQNKSTKFMDSVIFTLYNYASNQREEYLLLRLFKTALQEEIKSKVDQIQEIVTGNPTVIKMVVSFNRGARGQNALRQILAPVVKEIMDDKSLNIKTDPVDIYKSWVNQMESQTGEASKLPYDVTPEQALAHEEVKTRLDSSIRNMRAVTDKFLSAIVSSVDKIPYGMRFIAKVLKDSLHEKFPDAGEDELLKIIGNLLYYRYMNPAIVAPDAFDIIDLSAGGQLTTDQRRNLGSIAKMLQHAASNKMFLGDNAHLSIINEYLSQSYQKFRRFFQTACDVPELQDKFNVDEYSDLVTLTKPVIYISIGEIINTHTLLLDHQDAIAPEHNDPIHELLDDLGEVPTIESLIGESS
notes: human IQGAP1, GAP-related domain fragment GRD2, aa 962-1345, from the vector pMCSG7; source: E. coli (pLysS BL21(DE3), CodonPlusRIL or BL21(Rosetta)), purified (Ni-NTA, gel filtration)

biological target: T1, RAC1 (aa 1-179) (human, UniProt P63000 1-179); assay: fluorescence polarisation; IQGAP1 variant titrated to mGppNHp-bound RHO protein (1 μM); equilibrium Kd (eKd), quadratic fit; 30 mM Tris/HCl pH 7.5, 150 mM NaCl, 5 mM MgCl2, 3 mM DTT, 25 °C; conditions: both partners purified

| Kd | Binder |
| --- | --- |
| 5.53 µM | B1 |
| 4.6 µM | B2 |
| 6.7 µM | B3 |
| 26.7 µM | B4 |

biological target: T1, RAC1 (aa 1-179); assay: stopped-flow fluorometry; mGppNHp-bound RHO protein (0.2 μM) rapidly mixed with IQGAP1 variant (2 μM, or 2-12 μM for kon); koff by displacement with 10 μM non-fluorescent GppNHp-bound GTPase; Kd = koff/kon; 30 mM Tris-HCl pH 7.5, 10 mM KH2PO4/K2HPO4, 5 mM MgCl2, 3 mM DTT; conditions: both partners purified

| Kd | Binder |
| --- | --- |
| 0.94 µM | B1 |
| 2.81 µM | B2 |
| 3.21 µM | B3 |
| 6.26 µM | B4 |

Biological target: the molecule itself
Assay: SEC; analytical SEC, Superdex 200 10/30, calibrated with standard proteins; 100 μM protein in 200 μl; 30 mM Tris/HCl pH 7.5, 150 mM NaCl, 5 mM MgCl2, 3 mM DTT; 0.5 ml/min
Conditions: not given

| Binder | binding result | stoichiometry N |
| --- | --- | --- |
| B5 | binds | – |
| B6 | binds | – |
| B7 | – | 2 |
| B2 | – | 2 |
